Molecular target: the molecule itself
Assay: cryo-EM structure; purified THIK1EM at 2.4 mg/mL in 150 mM KCl, 20 mM Tris pH 8, 0.01% GDN; 300 kV Titan Krios, RELION; 3.2 Å

B1: C-terminally truncated human THIK1 (KCNK13), residues 1 to 309 (domain or fragment, UniProt Q9HB14 1-309, looked up)
chain: MAGRGFSWGPGHLNEDNARFLLLAALIVLYLLGGAAVFSALELAHERQAKQRWEERLANFSRGHNLSRDELRGFLRHYEEATRAGIRVDNVRPRWDFTGAFYFVGTVVSTIGFGMTTPATVGGKIFLIFYGLVGCSSTILFFNLFLERLITIIAYIMKSCHQRQLRRRGALPQESLKDAGQCEVDSLAGWKPSVYYVMLILCTASILISCCASAMYTPIEGWSYFDSLYFCFVAFSTIGFGDLVSSQNAHYESQGLYRFANFVFILMGVCCIYSLFNVISILIKQSLNWILRKMDSGCCPQCQRGLLRS
modifications: N-glycosylation at N59 and N65
notes: C-terminally truncated; The N-terminal GFP-His10 tags were removed by PreScission (3C) protease at LEVLFQ/GP; residues of the cleavage site probably remain at the N-terminus (surmised); Homodimeric K2P channel in GDN detergent; also called THIK1EM; hTHIK1EM; source: HEK293 GnTi- cells, baculovirus (BacMam) infection, purified (GFP-nanobody resin, 3C cleavage, Superdex 200 in GDN); not shown: GFP, …
  stoichiometry N: 2
